Assay results from article PMC5705280.

Biological target: Cul3 (Cullin3) (UniProt Q9JLV5)
Test: co-IP
Conditions: reference: PHLPP2 wild type; sites S1119,S1210

With “PHLPP2 (from UniProt Q6ZVD8) PHLPP2-2A (S1119A/S1210A)” the “binding against the reference” value was “weaker”.
